In US9175045B2, “Peptidomimetic macrocycles” (Aileron Therapeutics, Inc., priority 2008, dated 2015):
Numbered stars: 1 amine (or outer) side, 2 acyl side, 3 side chain; on linkers, the order of the positions; unused ones are H or OH. Bridge positions count the residues as written; N and C are the ends. Square brackets hold non-standard residues; d marks the D form. Peptide text beside a SMILES is read from it. * marks the point of attachment. ξ: configuration not given here. ξαMeNle(6-ylidene) = CC(CCCC=[*:3])(N[*:1])C(=O)[*:2]; S5 = C=CCCC[C@](C)(N)C(=O)O; Nle = CCCC[C@H](N)C(=O)O; Aib = CC(C)(N)C(=O)O; Propionyl = CCC(=O)*

Assays:
human serum proteins = experiment: Apparent affinity to human serum proteins (Kd*) by EC50 shift analysis; format: in vitro ADME; conditions: nonlinear regression of EC50 shift with serum, n = 1, P = 700 μM for 100% serum
Text: The measurement of apparent Kd values for serum protein by EC50 shift analysis provides a simple and rapid means of quantifying the propensity of experimental compounds to bind HSA and other serum proteins. A linear relationship exists between the apparent EC50 in the presence of serum protein (EC′50) and the amount of serum protein added to an in vitro assay. This relationship is defined by the binding affinity of the compound for serum proteins, expressed as Kd*. This term is an experimentally determined, apparent dissociation constant that may result from the cumulative effects of multiple, experimentally indistinguishable, binding events. The form of this relationship is presented here in Eq. 0.3, and its derivation can be found in Copeland et al, Biorg. Med. Chem. Lett. 2004, 14:2309-2312. [formula] A significant proportion of serum protein binding can be ascribed to drug interactions with HSA, due to the very high concentration of this protein in serum (35-50 g/L or 530-758 μM). To calculate the Kd value for these compounds we have assumed that the shift in EC50 upon protein addition can be ascribed fully to the HSA present in the added serum, where P is 700 μM for 100% serum, P is 70 μM for 10% serum, etc. We further made the simplifying assumption that all of the compounds bind HSA with a 1:1 stoichiometry, so that the term n in Eq. (0.3) is fixed at unity. With these parameters in place we calculated the Kd* value for each stapled peptide from the changes in EC50 values with increasing serum (and serum protein) concentrations by nonlinear regression analysis of Eq. 0.3 using Mathematica 4.1 (Wolfram Research, Inc., www.wolfram.com). EC′50 values in whole blood are estimated by setting P in Eq. 0.3 to 700 μM [HSA].

[1] = Estimated free fraction in blood, calculated from Kd* with [HSA]total 700 μM; format: in vitro ADME; conditions: human; [HSA]total set at 700 μM; read-out: Free Fraction est. in blood
Experimental: The free fraction in blood is estimated per the following equation, as derived by Trainor, Expert Opin. Drug Disc., 2007, 2(1):51-64, where [HSA]total is set at 700 μM. [formula]

Jurkat cell line = format: cell-based; conditions: for EC50: 24 h
Experimental: Jurkat cell line (Clone E6-1, ATCC catalog #TIB-152) is grown in specific serum-supplemented media (RPMI-1640, Invitrogen catalog #22400) as recommended by ATCC. A day prior to the initiation of the study, cells are split at optimal cell density (2×10^5-5×10^5 cells/ml) to assure actively dividing cells. The next day, cells are washed twice in serum-free Opti-MEM media (Invitrogen, Catalog #51985) and cells are then plated at optimal cell density (10,000 cells/well) in 50 μl Opti-MEM media or Opti-MEM supplemented with 2% or 10% human serum (Bioreclamation, catalog #HMSRM) in 96-well white tissue culture plate (Nunc, catalog #136102).
For serum free experiment, crosslinked polypeptides are diluted from 2 mM stocks (100% DMSO) in sterile water to prepare 400 μM working solutions. The crosslinked polypeptides and controls are diluted 10-fold first and then serially two-fold diluted in Opti-MEM in dosing plates to provide concentrations of between 1.2 and 40 μM. 50 μl of each dilution is then added to the appropriate wells of the test plate to achieve final concentrations of the polypeptides equal to between 0.6 to 20 μM. For studies using Opti-MEM supplemented with human serum (Bioreclamation, catalog #HMSRM), crosslinked polypeptides are diluted from 10 mM stocks (100% DMSO) in sterile water to prepare 2 mM working solutions. The crosslinked polypeptides and controls are diluted 10-fold first and then serially two-fold diluted in Opti-MEM in the presence of 2% or 10% of human serum to provide concentrations of the polypeptides equal to between 6.25 to 200 μM in dosing plates. 50 μl of each dilution is then added to the appropriate wells of the test plate to achieve final concentrations of the polypeptides equal to between 3.125 to 100 μM. Controls included wells without polypeptides containing the same concentration of DMSO as the wells containing the macrocycles, wells containing 0.1% Triton X-100 and wells containing no cells. Plates are incubated for 24 hours at 37° C. in humidified 5% CO2 atmosphere.
At the end of the incubation period, CellTiter-Glo assay is performed according to manufacturer's instructions (Promega, catalog #G7573) and luminescence is measured using Synergy HT Plate reader (BioTek). Luminescence correlates with viability. A reduction in viability reflects the ability of the test compounds to induce programmed cell death via BAX and BAK.

[2] = target: T1, human serum proteins (binding ascribed fully to human serum albumin, HSA) (human, UniProt P02768 25-609); experiment: cell-based or functional assay
[3] = target: T1, human serum proteins (binding ascribed …); experiment: apparent Kd* by EC50 shift analysis: Jurkat viability EC50 at 0, 2 and 10% human serum, fit assuming 1:1 binding to HSA

T1 sequence (P02768 25-609 limits assumed): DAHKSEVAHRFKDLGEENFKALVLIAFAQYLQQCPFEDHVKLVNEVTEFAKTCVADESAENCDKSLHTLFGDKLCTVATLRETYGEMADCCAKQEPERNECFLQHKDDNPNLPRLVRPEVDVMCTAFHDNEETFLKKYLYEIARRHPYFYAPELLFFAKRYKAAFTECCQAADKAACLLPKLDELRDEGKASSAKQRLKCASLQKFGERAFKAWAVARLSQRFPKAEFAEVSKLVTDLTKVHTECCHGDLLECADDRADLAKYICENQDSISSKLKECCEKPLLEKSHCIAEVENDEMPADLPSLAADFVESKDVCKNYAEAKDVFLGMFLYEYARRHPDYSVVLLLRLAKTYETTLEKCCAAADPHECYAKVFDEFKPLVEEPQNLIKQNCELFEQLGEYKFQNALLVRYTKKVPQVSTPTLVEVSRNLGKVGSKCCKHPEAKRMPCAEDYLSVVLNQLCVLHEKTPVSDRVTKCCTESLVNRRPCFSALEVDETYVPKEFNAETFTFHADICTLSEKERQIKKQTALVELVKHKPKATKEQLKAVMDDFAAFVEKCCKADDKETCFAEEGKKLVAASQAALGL

Kd (human serum proteins) | fraction unbound [1] | EC50 (Jurkat cell line) | Molecule | efficacy in serum-free media and in the presence of serum (Jurkat cell line; statement in words) | 2% serum EC50 (Jurkat cell viability, CellTiter-Glo) [2] | 10% serum EC50 (Jurkat cell viability, CellTiter-Glo) [2] | Kd [3]
< 0.1 µM | < 0.001 | 1.2 µM | CCCC[C@H](NC(=O)C1(C)CCCC=CCCCC(C)(NC(=O)[C@H](C)NC(=O)[C@H](CC(C)C)NC(=O)[C@H](Cc2c[nH]cn2)NC(=O)[C@H](CCCNC(=N)N)NC(=O)[C@H](C)NC(=O)[C@@H](NC(=O)[C@H](CC(N)=O)NC(=O)[C@H](CCCNC(=N)N)NC(=O)[C@@H](NC(=O)[C@@H](NC(=O)[C@H](CC(=O)O)NC(C)=O)[C@@H](C)CC)[C@@H](C)CC)[C@@H](C)CC)C(=O)N[C@@H](C(C)C)C(=O)NCC(=O)N[C@@H](CC(=O)O)C(=O)N1)C(=O)N[C@@H](CC(=O)O)C(=O)N[C@@H](CCCNC(=N)N)C(=O)N[C@@H](CO)C(=O)N[C@H](C(N)=O)[C@@H](C)CC (stereo partly shown) [Compound 1, Ac-DIIRNIARHLA$VGD$NleDRSI-NH2] (Ac-DIIRNIARHLA[ξαMeNle(6-ylidene)]VGD[ξαMeNle(6-ylidene)][Nle]DRSI-NH2; staple 12-16) | high efficacy in serum-free media, which is substantially reduced in the presence of serum | – | – | –
< 0.1 µM | < 0.001 | 1.6 µM | CCCC[C@H](NC(=O)C1(C)CCCC=CCCCC(C)(NC(=O)[C@H](C)NC(=O)[C@H](CC(C)C)NC(=O)[C@H](Cc2c[nH]cn2)NC(=O)[C@H](CCCNC(=N)N)NC(=O)[C@H](C)NC(=O)[C@@H](NC(=O)[C@H](CC(N)=O)NC(=O)[C@H](CCCNC(=N)N)NC(=O)[C@H](C)NC(=O)[C@H](C)NC(=O)[C@H](CC(=O)O)NC(C)=O)[C@@H](C)CC)C(=O)N[C@@H](C(C)C)C(=O)NC(C)(C)C(=O)N[C@@H](CC(=O)O)C(=O)N1)C(=O)N[C@@H](C)C(=O)N[C@@H](CCCNC(=N)N)C(=O)N[C@@H](CO)C(=O)N[C@H](C(N)=O)[C@@H](C)CC (stereo partly shown) [Compound 2, Ac-DAARNIARHLA$VAibD$NleARSI-NH2] (Ac-DAARNIARHLA[ξαMeNle(6-ylidene)]V[Aib]D[ξαMeNle(6-ylidene)][Nle]ARSI-NH2; staple 12-16) | – | – | – | –
< 0.1 µM | < 0.001 | 1.2 µM | CCCC[C@H](NC(=O)C1(C)CCCC=CCCCC(C)(NC(=O)[C@H](C)NC(=O)[C@H](CC(C)C)NC(=O)[C@H](Cc2c[nH]cn2)NC(=O)[C@H](CCCNC(=N)N)NC(=O)[C@H](C)NC(=O)[C@@H](NC(=O)[C@H](CC(N)=O)NC(=O)[C@H](CCCNC(=N)N)NC(=O)[C@H](C)NC(=O)[C@@H](NC(=O)[C@H](CC(=O)O)NC(C)=O)[C@@H](C)CC)[C@@H](C)CC)C(=O)N[C@@H](C(C)C)C(=O)NC(C)(C)C(=O)N[C@@H](CC(=O)O)C(=O)N1)C(=O)N[C@@H](C)C(=O)N[C@@H](CCCNC(=N)N)C(=O)N[C@@H](CO)C(=O)N[C@H](C(N)=O)[C@@H](C)CC (stereo partly shown) [Compound 3, Ac-DIARNIARHLA$VAibD$NleARSI-NH2] (Ac-DIARNIARHLA[ξαMeNle(6-ylidene)]V[Aib]D[ξαMeNle(6-ylidene)][Nle]ARSI-NH2; staple 12-16) | – | – | – | –
– | – | – | IWIAQALRXIGDXFNAYYARR (N-terminal acetyl (Ac); C-terminal amide (NH2); $ at 9 and 13 (alpha-methyl amino acids joined by an all-carbon eight-carbon crosslinker with a double bond)) [Compound 12 (crosslinked polypeptide derived from human BIM BH3)] | – | 8.6 µM | 26.5 µM | 2.3 µM
– | – | – | Ac-IWIAQALR[S5]IGN[S5]FNAYYARR-NH2 (staple 9-13) [Compound 16 (crosslinked polypeptide derived from human BIM BH3)] | – | 2.3 µM | 9.3 µM | 3.5 µM
– | – | – | Ac-RWIAQALR[S5]IGN[S5]FNAYYARR-NH2 (staple 9-13) [Compound 15 (crosslinked polypeptide derived from human BIM BH3)] | – | 2.6 µM | 11.5 µM | 5.1 µM
– | – | – | Ac-IWIAQQLR[S5]IGD[S5]FNAYYARR-NH2 (staple 9-13) [Compound 11 (crosslinked polypeptide derived from human BIM BH3)] | – | 7.9 µM | 37.6 µM | 1.1 µM
– | – | – | Ac-RWIAQALR[S5]IGD[S5]FNAFYARR-NH2 (staple 9-13) [Compound 14 (crosslinked polypeptide derived from human BIM BH3)] | – | 2.8 µM | 10.8 µM | 2.3 µM
– | – | – | Ac-RWIAQQLR[S5]IGD[S5]FNAYYARR-NH2 (staple 9-13) [Compound 13 (crosslinked polypeptide derived from human BIM BH3)] | – | 5.4 µM | 21.5 µM | 3.8 µM
– | – | – | Ac-ALRRRI[S5]LCA[S5]HHST-NH2 (staple 7-11, also called hMAML) [Compound 19 (crosslinked polypeptide derived from human MAML peptide sequence)] | – | 14.7 µM | 57.5 µM | 0.6 µM
– | – | – | Propionyl-RNI[Aib]RHL[Aib][S5]V[Aib]D[S5]AARSI-NH2 (staple 9-13) [Compound 9 (crosslinked polypeptide derived from human BID BH3)] | – | 5.6 µM | 20.2 µM | 2.9 µM
– | – | – | Ac-ERLRRRI[S5]LCR[S5]HHST-NH2 (staple 8-12, also called hMAML) [Compound 17 (crosslinked polypeptide derived from human MAML peptide sequence)] | – | 55.1 µM | > 100 µM | < 0.1 µM
– | – | – | Ac-ERLRRRI[S5]LAR[S5]HHST-NH2 (staple 8-12, also called hMAML) [Compound 18 (crosslinked polypeptide derived from human MAML peptide sequence)] | – | > 100 µM | > 100 µM | < 0.1 µM
– | – | – | Ac-DAARNIARHLA[S5]V[Aib]D[S5][Nle]ARSI-NH2 (staple 12-16) [Compound 2 (crosslinked polypeptide derived from human BID BH3)] | – | 20.5 µM | 97.1 µM | < 0.1 µM
– | – | – | Ac-DIARNIARHLA[S5]V[Aib]D[S5][Nle]ARSI-NH2 (staple 12-16) [Compound 3 (crosslinked polypeptide derived from human BID BH3)] | – | 14.9 µM | 88.9 µM | < 0.1 µM
– | – | – | Ac-DAIRNIARHLA[S5]V[Aib]D[S5][Nle]ARSI-NH2 (staple 12-16) [Compound 4 (crosslinked polypeptide derived from human BID BH3)] | – | 11.3 µM | 73.1 µM | < 0.1 µM
